Experimental data from patent US20220363763A1 (ABL BIO, published 2022).

Columns and labels:
human PD-L1-Fc protein [1] = target: T1, human PD-L1-Fc protein (human, UniProt Q9NZQ7 19-239); assay: receptor blocking assay, panel PD1; blocked ligand biotin-labeled human PD-1-Fc; by paragraph 296 an ELISA on coated PD-L1-Fc, though the sheet is headed 'Cell based receptor blocking assay'
T1 construct: Coated on ELISA plates; also called huPD-L1; not shown: Fc part
Summary of the method: (§1)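 Plates were coated overnight at 4° C with human PD-L1-Fc at 1 μg/ml in PBS (100 μl/well) and blocked with 5% BSA for 2 hr at 37° C. Biotin-labeled human PD-1-Fc or B7-1 protein (50 μl) was combined with 50 μl of 5-fold antibody dilutions starting from 100 nM and incubated for 1 hour at 37° C, followed by streptavidin-HRP for 1 hour at 37° C. In this protein-based receptor blocking ELISA, IC50 was taken from the resulting curve.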

mouse PD-L1-Fc protein = target: T2, mouse PD-L1-Fc protein (mouse, UniProt Q9EP73 19-238, limits assumed); assay: ELISA on coated PD-L1-Fc
T2 construct: not shown: Fc part
Protocol: (§2) To evaluate the binding of humanized antibodies to huPD-L1, Mouse PD-L1, Rat PD-L1, […], the antibodies were performed for the ELISA testing. Briefly, microtiter plates were coated with human, mouse, rat and rhesus PD-L1-Fc protein at 1 μg/ml in PBS, 100 μl/well at […] overnight, then blocked with […] of 5% BSA. Three-fold dilutions of humanized antibodies starting from 1 μg/ml were added to each well and incubated for 1-2 hours at RT. The plates were washed with PBS/Tween and then incubate with […] antibody conjugated with Horse Radish Peroxidase (HRP) for 1 hour at RT. After washing, the plates were developed with TMB substrate and analyzed by spectrophotometer at OD 450-630 nm. The Hu1210-41 antibody can bind to rhesus PD-L1 with lower affinity and cannot bind to rat and mouse PD-L1 (FIG. 8 & Table 12).

rat PD-L1-Fc protein = rat PD-L1-Fc protein (rat, UniProt D4AE25 19-239); assay: ELISA on coated PD-L1-Fc
Protocol: as §2

human PD-L1-Fc protein [2] = target: T1, human PD-L1-Fc protein; assay: ELISA on coated human PD-L1-Fc; table row 'Human PD-L1', no unit in the table, x axis Ab(nM); Table 12 of the text prints 0.215 nM
Protocol: as §2

[3] = target: T3, human PD-L1-his taq protein (human, UniProt Q9NZQ7 19-239, limits assumed); assay: SPR Biacore T200, antibody captured, PD-L1-his injected
T3 construct: also called recombinant PD-L1 protein; recombinant human PD-L1; not shown: his tag
Summary of the method: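 HL1210-3 mouse mAb was captured via anti-mouse Fc antibody on a CM5 chip, then serially diluted PD-L1-his was injected for 3 min […]. Dissociation was followed for 900 s.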

human PD-L1-Fc protein [4] = target: T1, human PD-L1-Fc protein; assay: ELISA on coated human PD-L1-Fc
Protocol: as §2

human PD-L1-Fc protein [5] = target: T1, human PD-L1-Fc protein; assay: receptor blocking assay, panel B7-1; blocked ligand biotin-labeled B7-1 protein; by paragraph 296 an ELISA on coated PD-L1-Fc, though the sheet is headed 'Cell based receptor blocking assay'
Summary of the method: as §1

ICOS = target: T4, ICOS (human, UniProt Q9Y6W8 21-140, limits assumed); assay: ELISA
T4 sequence (looked up): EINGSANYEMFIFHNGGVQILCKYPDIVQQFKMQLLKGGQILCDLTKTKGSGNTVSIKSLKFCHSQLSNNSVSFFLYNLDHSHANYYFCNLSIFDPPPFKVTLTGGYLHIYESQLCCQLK

CTLA4 = CTLA4 (human, UniProt P16410 36-161, limits assumed); assay: ELISA
B7-DC = target: T5, B7-DC (human, UniProt Q9BQ51 20-220, limits assumed); assay: ELISA
T5 sequence (looked up): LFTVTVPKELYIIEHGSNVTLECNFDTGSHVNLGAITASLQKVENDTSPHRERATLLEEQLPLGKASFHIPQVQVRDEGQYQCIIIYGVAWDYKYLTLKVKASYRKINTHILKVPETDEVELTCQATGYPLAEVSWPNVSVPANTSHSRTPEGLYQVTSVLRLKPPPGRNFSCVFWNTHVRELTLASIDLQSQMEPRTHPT

B7-H2 = target: T6, B7-H2 (human, UniProt O75144 19-258, limits assumed); assay: ELISA
T6 sequence (looked up): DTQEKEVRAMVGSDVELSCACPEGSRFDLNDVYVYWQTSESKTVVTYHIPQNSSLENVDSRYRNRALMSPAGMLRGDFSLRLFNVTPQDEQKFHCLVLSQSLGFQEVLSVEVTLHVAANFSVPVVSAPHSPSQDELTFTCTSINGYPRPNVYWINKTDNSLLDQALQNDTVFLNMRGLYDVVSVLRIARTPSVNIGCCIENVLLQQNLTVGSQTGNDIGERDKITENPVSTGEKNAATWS

BTLA = BTLA (human, UniProt Q7Z6A9 31-157, limits assumed); assay: ELISA
huPD-1 = target: T7, huPD-1 (human, UniProt Q15116 25-167, limits assumed, biotin-labeled in the FACS blocking assays); assay: ELISA
T7 construct: also called biotin-labeled huPD-1; Bio-PD1

B7-2 = target: T8, B7-2 (human, UniProt P42081 24-247, limits assumed); assay: ELISA
T8 sequence (looked up): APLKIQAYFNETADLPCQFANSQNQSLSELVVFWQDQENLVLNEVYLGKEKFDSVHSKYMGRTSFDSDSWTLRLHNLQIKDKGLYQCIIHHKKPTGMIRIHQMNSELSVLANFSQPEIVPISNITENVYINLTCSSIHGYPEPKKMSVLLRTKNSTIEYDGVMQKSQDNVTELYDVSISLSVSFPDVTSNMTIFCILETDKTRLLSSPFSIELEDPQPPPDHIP

B7-1 protein = target: T9, B7-1 protein (human, UniProt P33681 35-242, limits assumed, biotin-labeled in the blocking assay); assay: ELISA
T9 construct: also called human B7-1; biotin-labeled B7-1
T9 sequence (looked up): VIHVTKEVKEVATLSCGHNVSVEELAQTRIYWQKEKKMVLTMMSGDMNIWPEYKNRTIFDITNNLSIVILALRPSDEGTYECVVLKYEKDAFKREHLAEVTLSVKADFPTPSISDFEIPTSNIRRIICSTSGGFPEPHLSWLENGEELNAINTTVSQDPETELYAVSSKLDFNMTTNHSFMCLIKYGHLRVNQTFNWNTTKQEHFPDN

CD28 = CD28 (human, UniProt P10747 19-152); assay: ELISA
rhesus PD-L1-Fc protein = target: T10, rhesus PD-L1-Fc protein (rhesus, UniProt F6PJN1 19-239); assay: ELISA on coated rhesus PD-L1-Fc
T10 construct: not shown: Fc part
Protocol: as §2

T3 sequence (Q9NZQ7 19-239 limits assumed): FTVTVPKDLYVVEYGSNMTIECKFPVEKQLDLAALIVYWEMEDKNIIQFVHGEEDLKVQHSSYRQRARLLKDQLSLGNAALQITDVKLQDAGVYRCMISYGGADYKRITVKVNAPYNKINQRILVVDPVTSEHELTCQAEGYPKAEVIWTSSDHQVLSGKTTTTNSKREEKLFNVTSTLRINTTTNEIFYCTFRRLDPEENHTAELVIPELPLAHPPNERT
T1 sequence (Q9NZQ7 19-239 limits assumed): as above
CTLA4, sequence (P16410 36-161 limits assumed): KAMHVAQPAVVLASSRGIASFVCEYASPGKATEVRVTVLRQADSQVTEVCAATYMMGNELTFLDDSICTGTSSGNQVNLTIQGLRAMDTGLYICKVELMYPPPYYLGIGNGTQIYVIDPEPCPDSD
T2 sequence (Q9EP73 19-238 limits assumed): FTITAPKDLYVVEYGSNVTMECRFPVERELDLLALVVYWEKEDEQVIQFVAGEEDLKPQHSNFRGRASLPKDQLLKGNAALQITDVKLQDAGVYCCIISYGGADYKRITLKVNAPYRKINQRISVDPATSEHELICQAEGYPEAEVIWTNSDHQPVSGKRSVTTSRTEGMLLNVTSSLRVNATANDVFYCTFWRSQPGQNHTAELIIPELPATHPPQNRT
rat PD-L1-Fc protein, sequence (D4AE25 entry or part of it limits assumed): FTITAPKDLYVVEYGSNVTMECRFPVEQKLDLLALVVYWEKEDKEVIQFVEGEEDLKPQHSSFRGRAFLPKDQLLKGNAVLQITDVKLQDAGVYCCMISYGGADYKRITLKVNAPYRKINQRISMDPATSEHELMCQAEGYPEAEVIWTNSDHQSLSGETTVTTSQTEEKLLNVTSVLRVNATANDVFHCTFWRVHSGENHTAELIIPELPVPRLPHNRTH
T7 sequence (Q15116 25-167 limits assumed): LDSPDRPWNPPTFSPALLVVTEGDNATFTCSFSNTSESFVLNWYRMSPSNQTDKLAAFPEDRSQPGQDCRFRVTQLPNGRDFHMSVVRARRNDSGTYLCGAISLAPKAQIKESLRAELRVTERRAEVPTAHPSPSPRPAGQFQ

- IC50 (read off the curve) (human PD-L1-Fc protein [1]): ~1 nM
- EC50 (human PD-L1-Fc protein [2]): 0.21 nM
- Kd [3]: 0.378 nM
- koff [3]: 3.46e-05 s⁻¹
- kon [3]: 91700 M⁻¹ s⁻¹
- EC50 (human PD-L1-Fc protein [4]): 0.215 nM
- IC50 (read off the curve) (human PD-L1-Fc protein [5]): ~0.9 nM
- binding result (ICOS): no binding
- binding result (CTLA4): no binding
- binding result (B7-DC): no binding
- binding result (B7-H2): no binding
- binding result (BTLA): no binding
- binding result (huPD-1): no binding
- binding result (B7-2): no binding
- binding result (B7-1 protein): no binding
- binding result (CD28): no binding
- EC50 (rhesus PD-L1-Fc protein): 0.628 nM
B1: Hu1210-41 (antibody, V domains shown)
VH: EVQLVESGGGLVQPGGSLRLSCAASGFTFSSYDMSWVRQAPGKSLEWVATISDAGGYIYYSDSVKGRFTISRDNAKNSLYLQMNSLRDEDTAVYICAREFGKRYALDYWGQGTTVTVSS
VL: DIQMTQSPSSLSASVGDRVTITCKASQDVTPAVAWYQQKPGKAPKLLIYSTSSRYTGVPSRFSGSGSGTDFTFTISSLQPEDIATYYCQQHYTTPLTFGQGTKLEIK
notes: Hu1210 VH.4d x Vk.1; human gamma 1 / kappa constant domains; also called H12; Hu1210 VH.4d x Hu1210 Vk.1
- binding result (mouse PD-L1-Fc protein): no binding (tested: 1 µg/ml (highest concentration))
- binding result (rat PD-L1-Fc protein): no binding (tested: 1 µg/ml (highest concentration))
